From article PMC7431413 (2020)

B1: monobody MS3-6, displayed on yeast cells (designed binder)
chain: VSSVPTKLEVVAATPTSLLISWDAPAVTVDFYHITYGETGGNSPVQEFTVPGSKSTATISGLKPGVDYTITVYAYVSYPEYYFPSPISINYRT
B2: core fragment (CF) of STAT3, biotinylated (domain or fragment)
chain: GQANHPTAAVVTEKQQMLEQHLQDVRKRVQDLEQKMKVVENLQDDFDFNYKTLKSQGDMQDLNGNNQSVTRQKMQQLEQMLTALDQMRRSIVSELAGLLSAMEYVQKTLTDEELADWKRRQQIACIGGPPNICLDRLENWITSLAESQLQTRQQIKKLEELQQKVSYKGDPIVQHRPMLEERIVELFRNLMKSAFVVERQPCMPMHPDRPLVIKTGVQFTTKVRLLVKFPELNYQLKIKVCIDKDSGDVAALRGSRKFNILGTNTKVMNMEESNNGSLSAEFKHLTLREQRCGNGGRANCDASLIVTEELHLITFETEVYHQGLKIDLETHSLPVVVISNICQMPNAWASILWYNMLTNNPKNVNFFTKPPIGTWDQVAEVLSWQFSSTTKRGLSIEQLTTLAEKLLGPGVNYSGCQITWAKFCKENMAGKGFSFWVWLDNIIDLVKKYILALWNEGYIMGFISKERERAILSTKPPGTFLLRFSESSKEGGVTFTWVEKDISGKTQIQSVEPYTKQQLNNMSFAEIIMGYKIMDATNILVSPLVYLYPDIPKEEAFGKYCRPESQEHPEADPGSAAPYLKTKFICVTPTTCSNTI
modifications: biotin on the Avi-tag
B3: N-terminal domain of STAT3, biotinylated (domain or fragment)
chain: QWNQLQQLDTRYLEQLHQLYSDSFPMELRQFLAPWIESQDWAYAASKESHATLVFHNLLGEIDQQYSRFLQESNVLYQHNLRRIKQFLQSRYLEKPMEIARIVARCLWEESRLLQTAATAAQQGGQANHPTAAVVT
modifications: biotin on the Avi-tag

Columns and labels:
Experiment in all cases: FACS; yeast display
[1] = molecular target: B2
MS3-4 = molecular target: MS3-4
MS3-8 = molecular target: MS3-8
MS3-7 = molecular target: MS3-7
MS3-2 = molecular target: MS3-2
MS3-5 = molecular target: MS3-5
MS3-1 = molecular target: MS3-1
MS3-N7 = molecular target: MS3-N7
MS3-N5 = molecular target: MS3-N5
MS3-N1 = molecular target: MS3-N1

Binder: B1
Kd [1]: 8 nM

Binder: B2
Kd (MS3-4): 18 nM
Kd (MS3-8): 235 nM
Kd (MS3-7): 135 nM
Kd (MS3-2): 104 nM
Kd (MS3-5): 88 nM
Kd (MS3-1): 127 nM

Binder: B3
Kd (MS3-N7): 38 nM
Kd (MS3-N5): 39 nM
Kd (MS3-N1): 65 nM
